Measured values from patent US20200368361A1 (Regeneron, published 2020).

Experiments:
[1] = target: T1, mouse MSR1 on RAW264.7 cells (mouse, UniProt P30204 1-458); experiment: flow cytometry, RAW264.7 cells, 10 ug/mL;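 note: antibodies bound to RAW264.7 cells for 30 min on ice after Fc block with mouse IgG, S/N is MFI relative to unstained cells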
T1 construct: whole, on cells
T1 sequence (looked up): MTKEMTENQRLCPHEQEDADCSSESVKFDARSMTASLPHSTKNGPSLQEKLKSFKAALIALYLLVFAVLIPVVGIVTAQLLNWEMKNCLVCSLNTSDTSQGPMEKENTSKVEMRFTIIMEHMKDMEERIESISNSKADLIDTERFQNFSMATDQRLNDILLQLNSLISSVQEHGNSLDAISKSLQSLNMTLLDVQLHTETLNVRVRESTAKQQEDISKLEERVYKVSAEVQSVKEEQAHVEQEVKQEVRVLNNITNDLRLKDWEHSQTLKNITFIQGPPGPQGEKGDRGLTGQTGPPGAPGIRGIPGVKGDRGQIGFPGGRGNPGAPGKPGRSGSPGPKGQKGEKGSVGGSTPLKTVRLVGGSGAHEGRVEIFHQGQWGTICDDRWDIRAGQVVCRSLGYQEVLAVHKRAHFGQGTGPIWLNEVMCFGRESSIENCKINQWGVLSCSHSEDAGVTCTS
Protocol: To block binding to Fc receptors, RAW264.7 cells were incubated for 30 minutes at 4° C. with 500 μg/mL mouse IgG (Jackson ImmunoResearch, Cat #015-000-003) diluted in staining buffer, while B16F10.9 cells remained in staining buffer. Following Fc receptor blocking, 10 μg/mL of anti-MSR1 antibodies or an isotype control antibody were added to the cells and were subsequently incubated for 30 minutes on ice. […] The signal to noise (S/N) was determined by calculating the ratio of the anti-MSR1 antibodies or the control antibodies MFI to the unstained sample MFI (Table 16).

[2] = target: T2, full length monkey MSR1 on HEK293.mfMSR1 cells (Macaca fascicularis, UniProt A0A2K5UWE2 1-451); experiment: ECL cell binding, HEK293.mfMSR1
T2 construct: whole, on cells
T2 sequence: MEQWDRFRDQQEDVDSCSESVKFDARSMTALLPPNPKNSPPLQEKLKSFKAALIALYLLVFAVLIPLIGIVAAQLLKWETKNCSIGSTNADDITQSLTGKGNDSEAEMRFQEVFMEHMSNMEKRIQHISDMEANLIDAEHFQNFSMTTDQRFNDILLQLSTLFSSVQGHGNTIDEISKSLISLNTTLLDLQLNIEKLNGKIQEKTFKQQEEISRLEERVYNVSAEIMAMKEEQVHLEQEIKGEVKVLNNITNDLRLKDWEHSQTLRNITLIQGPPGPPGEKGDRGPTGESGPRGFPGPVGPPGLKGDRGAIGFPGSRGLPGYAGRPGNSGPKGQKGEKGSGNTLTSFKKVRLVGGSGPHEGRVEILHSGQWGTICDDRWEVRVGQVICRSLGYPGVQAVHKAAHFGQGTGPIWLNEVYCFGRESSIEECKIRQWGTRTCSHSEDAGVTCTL
Protocol: (§1) All cells were washed once with 1×PBS with Ca²⁺/Mg²⁺ and counted with a Cellometer™ Auto T4 cell counter (Nexcelom Bioscience). Approximately 1.0×10⁴ cells were seeded separately onto 96-well carbon electrode plates [MULTI-ARRAY high bind plate, Meso Scale Diagnostics] and incubated for 1 hour at 37° C. Non-specific binding sites were then blocked by 2% BSA (w/v) in PBS with Ca²⁺/Mg²⁺ for 1 hour at room temperature. THP-1 cells were pre-incubated for 0.5 hours at room temperature in sample dilution buffer with: 1) 1 mg/mL Fc receptor block reagents to block Fc gamma receptors on THP-1 cell surface [whole molecule human IgG (Jackson Immunoresearch, Cat #009-000-003) for wells being tested with anti-MSR1-mFc antibodies or 2) whole molecule mIgG (Jackson Immunoresearch, Cat #015-000-003) for wells being tested with anti-MSR1-hFc antibodies. Antibody binding on HEK293.Myc.hMSR1, HEK293.mfMSR1 and HEK293 cells was tested without Fc receptor block reagents. […] Plates were then washed to remove unbound antibodies an AquaMax2000 plate washer with a cell washing head (MDS Analytical Technologies). […] Plates were washed and developed with Read Buffer (Meso Scale Diagnostics, Cat #R92TD-2) according to manufacturer's recommended procedure and luminescent signals were recorded with a SECTOR Imager 600 (Meso Scale Diagnostics). Luminescence intensity, measured in relative light units (RLU), was recorded to indicate the binding intensity of each antibody at the range of concentrations.

[3] = target: T3, full length human MSR1 with a C-terminal Myc tag on HEK293.Myc.hMSR1 cells (human, UniProt P21757 1-451); experiment: ECL cell binding, HEK293.Myc.hMSR1
T3 construct: whole, on cells
T3 sequence (looked up): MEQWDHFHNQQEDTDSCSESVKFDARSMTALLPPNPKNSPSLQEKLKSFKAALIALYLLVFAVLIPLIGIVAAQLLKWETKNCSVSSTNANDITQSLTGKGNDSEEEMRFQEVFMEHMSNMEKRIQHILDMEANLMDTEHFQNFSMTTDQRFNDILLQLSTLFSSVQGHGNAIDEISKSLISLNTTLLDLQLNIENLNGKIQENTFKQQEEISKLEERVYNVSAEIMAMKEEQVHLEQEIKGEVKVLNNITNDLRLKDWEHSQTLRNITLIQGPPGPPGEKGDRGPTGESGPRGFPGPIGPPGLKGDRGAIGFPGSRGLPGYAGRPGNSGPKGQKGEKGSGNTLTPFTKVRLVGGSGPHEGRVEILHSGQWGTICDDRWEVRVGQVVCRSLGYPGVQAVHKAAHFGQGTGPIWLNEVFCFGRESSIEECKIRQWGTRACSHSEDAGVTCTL
Protocol: as §1

[4] = target: T4, human MSR1 with a C-terminal Myc tag expressed on HEK293.Myc.hMSR1 cells (human, UniProt P21757 1-451); experiment: cell-based or functional assay
T4 sequence (looked up): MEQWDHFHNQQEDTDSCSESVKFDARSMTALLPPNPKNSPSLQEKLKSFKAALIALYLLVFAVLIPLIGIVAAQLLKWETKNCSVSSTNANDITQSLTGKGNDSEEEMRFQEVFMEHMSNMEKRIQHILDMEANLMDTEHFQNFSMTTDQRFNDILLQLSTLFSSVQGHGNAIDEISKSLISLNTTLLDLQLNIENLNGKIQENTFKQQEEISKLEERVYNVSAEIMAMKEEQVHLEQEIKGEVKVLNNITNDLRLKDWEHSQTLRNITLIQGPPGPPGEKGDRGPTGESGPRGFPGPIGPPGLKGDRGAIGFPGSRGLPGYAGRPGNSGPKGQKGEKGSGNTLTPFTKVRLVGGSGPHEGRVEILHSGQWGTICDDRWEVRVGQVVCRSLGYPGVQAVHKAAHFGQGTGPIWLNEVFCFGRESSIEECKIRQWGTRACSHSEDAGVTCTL

B1: H1H27732P-N297Q (antibody, human IgG1, V domains shown)
VH: QLQLQESGPGLVKPSETLSLTCTVSGGSISSSTYYWGWIRQPPGKGLEWIGSFYYSGSTYYNPSLKSRVTISVGTSKNQFSLKLSSVTAADTAVYFCARGGLLGRPFVIWGQGTMVTVSS
VL: DIQMTQSPSSLSASVGDRVTITCRASQGIRNDLGWYQQKPGKAPKRLIYAASSLQSGVPSRFSGSGSGTEFTLTISSLQPEDFATYYCLQHNSYPLTFGGGTKVEIKR
notes: human IgG1 Fc with N297Q
[1]
  MFI: 3420

B2: H1H27749P-N297Q (antibody, human IgG1, V domains shown)
VH: QVQLQESGPGLVKPSETLSLTCTVSDGSISSYYWSWIRQPPGRGLEWIGFIYYSGSTSYNPSLKSRVTISVDTSMSQFSLKLRSVTAADTAVYYCARGSPFDYWGPGTLVTVSS
VL: EIVLTQSPGTLSLSPGERATLSCRASQSVSSSYLAWYQQRPGQAPSLLISGASRRATGIPDRFSGSGSGTDFTLTIRRLEPEDFAMYYCQQYGSSPPTFGGGTKVEIKR
notes: human IgG1 Fc with N297Q
[1]
  MFI: 3790

B3: H1xH29283P2 (antibody, V domains shown)
VH: QVQLVQSGTEVKKPGSSVKVSCKASGGTFSRYTFSWVRQAPGQGLEWMGGIIPIFGTTNYAQKFQGRVTITTDESTSTVYMELSSLRSEDTAVYYCTRGGRYGWFDPWGQGTLVTVSS
VL: not shown
notes: prefix H1xH not explained for the anti-MSR1 antibodies
[2]
  binding signal ratio to isotype control (11 nM): 24 fold
[3]
  binding signal ratio to isotype control (11 nM): 26 fold

B4: H1H27760P2-N297Q (antibody, human IgG1, V domains shown)
VH: EVQLVESGGGLVQPGRSLRLSCAASGFTFDAYAMHWVRQAPGKGLEWVSGISWNSGSIGYADSVKGRFTISRDNAKNSLYLQMNSLREEDTALYYCAKDKILELYYYGMDVWGQGTTVTVSS
VL: not shown
notes: human IgG1 Fc with N297Q; also called H1H27760P-N297Q
[1]
  MFI: 3430

B5: H1H27736P-N297Q (antibody, human IgG1, V domains shown)
VH: EVQLVESGGGLVQPGGSLRLSCAASGFTFSSYAMSWVRQAPGKGLEWVSSISGSGDSTFYTDSVKGRFTISRDISKNTLYLQMNSLRAEDTAVYYCAKDRLLWFGDLISPFHYWGQGTLVTVSS
VL: EIVLTQSPGTLSLSPGERATLSCRASQSVSNIYLAWYQQKPAQAPRLLIYGASSRATGIPDRFSVSGSGTDFTLTISRLEPEDFAVYYCQQYGSSPRTFGQGTKVEIKR
notes: human IgG1 Fc with N297Q
[1]
  MFI: 3550

B6: H2aM21228N (antibody, mouse IgG2a, V domains shown)
VH: VQLVESGGGLVQPGGSLRLSCAASGFTFSDHYMDWVRQAPGKGLEWVGRTRNKANSHTTEYAASVSGRFTISRDDSKNSLYLQMNSLKTEDTAVYYCTRAGIIGTLFDYWGQGTLVTVSS
VL: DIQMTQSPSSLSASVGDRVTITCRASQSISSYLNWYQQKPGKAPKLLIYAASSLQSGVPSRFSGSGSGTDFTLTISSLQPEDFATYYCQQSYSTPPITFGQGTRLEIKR
notes: mouse IgG2a Fc
[2]
  binding signal ratio to isotype control (11 nM): 60 fold
[3]
  binding signal ratio to isotype control (11 nM): 66 fold

B7: H1H21227N-N297Q (antibody, V domains shown)
VH: QVQLVQSGAEVKKPGASVKVSCKVSGYTLTELSIHWVRQVPGKGLEWMGGFDPEEGETIFAQEFRDRVTLTEDTSPDTAYMELSSLKSEDAAVYYCTTPRYCNNGICYDYWGQGTLVTVSS
VL: DIQMTQSPSSLSASVGDRVTITCRASQSISNYLNWYQQKPGKAPKLLIYTASSLQSGVPSRFSGSGSGTDFTLTISSLQTEDFATYYCQQSYSNFPITFGQGTRLEIKR
[4]
  % Inhibition of Dil-Acetylated LDL uptake: 65%
  % Inhibition of Dil-Oxidized LDL uptake: 94%
  IC50 of inhibition of Dil-Acetylated LDL uptake: 2.4 nM
  IC50 of inhibition of Dil-Oxidized LDL uptake: 1.8 nM

B8: H1H21231N (antibody, V domains shown)
VH: EVQLVESGGGLVQPGGSLRLSCAASGFTFSDHYMDWVRQAPGKGLEWVGRTRNKANSHTTEYTASVTGRFTISRDDSRNSLYLQMNSLKTEDTAVYYCVRAGIIGTLFDYWGQGTLVTVSS
VL: DIQMTQFPSSLSASVGDRVTITCRASQSISSFLNWFQQKPGKAPKFLIYAASSLQSGVPSRFSGSGSGTDFTLTISSLQPEDFATYYCQQSYSSPPITFGQGTRLEIKR
[4]
  % Inhibition of Dil-Acetylated LDL uptake: 63%
  % Inhibition of Dil-Oxidized LDL uptake: 78%
  IC50 of inhibition of Dil-Acetylated LDL uptake: 3.5 nM
  IC50 of inhibition of Dil-Oxidized LDL uptake: 3.6 nM

B9: H1H21227N (antibody, V domains shown)
VH: QVQLVQSGAEVKKPGASVKVSCKVSGYTLTELSIHWVRQVPGKGLEWMGGFDPEEGETIFAQEFRDRVTLTEDTSPDTAYMELSSLKSEDAAVYYCTTPRYCNNGICYDYWGQGTLVTVSS
VL: DIQMTQSPSSLSASVGDRVTITCRASQSISNYLNWYQQKPGKAPKLLIYTASSLQSGVPSRFSGSGSGTDFTLTISSLQTEDFATYYCQQSYSNFPITFGQGTRLEIKR
[4]
  % Inhibition of Dil-Acetylated LDL uptake: 65%
  % Inhibition of Dil-Oxidized LDL uptake: 89%
  IC50 of inhibition of Dil-Acetylated LDL uptake: 2.1 nM
  IC50 of inhibition of Dil-Oxidized LDL uptake: 2 nM

B10: H1H21231N-N297Q (antibody, human IgG1, V domains shown)
VH: EVQLVESGGGLVQPGGSLRLSCAASGFTFSDHYMDWVRQAPGKGLEWVGRTRNKANSHTTEYTASVTGRFTISRDDSRNSLYLQMNSLKTEDTAVYYCVRAGIIGTLFDYWGQGTLVTVSS
VL: DIQMTQFPSSLSASVGDRVTITCRASQSISSFLNWFQQKPGKAPKFLIYAASSLQSGVPSRFSGSGSGTDFTLTISSLQPEDFATYYCQQSYSSPPITFGQGTRLEIKR
notes: human IgG1 Fc with N297Q
[1]
  MFI: 3580
  S/N: 1

B11: H1H27729P-N297Q (antibody, V domains shown)
VH: QVQLVESGGGLVKPGGSLRLSCAASGFIFSDYYMSWIRQAPGKGLEWVSYISSSGTTIYGDSVKGRFTMSRDNAKNSLYLQMNSLRAEDTAVYYCARNYALFDYWGQGTLVTVSS
VL: DIQMTQSPSSLSASVGDRVTITCQASQDISKYLNWYQQKPGKAPKLLIYYTSNLETGVPSRFSGSGSGTDFTFTISSLQPEDIATYYCHQSDYLPFTFGPGTKVDIKR
[4]
  IC50 of inhibition of Dil-Acetylated LDL uptake: 1.2 nM

B12: H1H27731P-N297Q (antibody, V domains shown)
VH: QLQLQESGPGLVKPSETLSLTCTVSGGSISRISYYWGWIRQPPGKGLEWIGSIYDSGSTYYNPSLKSRVTISIDTSKNQFSLKLSSVTAADTAVYYCVRYSSSSAFAFDYWGQGTLVTVSS
VL: DIQMTQSPSSVSASVGDRVTITCRASQGISSWLAWYQQKPGKAPKLLIYAASSLQSGVPSRFSGSGSGTDFTLTISSLQPEDFATYYCQQANSFPFTFGPGTKVDIKR
[4]
  IC50 of inhibition of Dil-Acetylated LDL uptake: 1.8 nM
  IC50 of inhibition of Dil-Oxidized LDL uptake: > 10 nM

B13: H1H21234N (antibody, V domains shown)
VH: QVQLQESGPGLVKPSETLSLTCTVTGGSISRNYWSWIRQPPGKGLEWIGYIYYSGSIDYNPSLKSRVTISVDTSKNQFSLKLSSMTAADTAVYYCARDRWNWKYGMDVWGQGTTVIVSS
VL: EIVLTQSPGTLSLSPGERATLSCRASQTVRNNYLAWYHQKPGQAPRLLIYGASSRATGIPDRFSGSGSGTDFTLTISRLEPEDFTVYYCHQYGNSPWTFGQGTKMEIKR
[4]
  IC50 of inhibition of Dil-Acetylated LDL uptake: 0.71 nM
  IC50 of inhibition of Dil-Oxidized LDL uptake: 4.3 nM

B14: H2aM25695N (antibody, mouse IgG2a, V domains shown)
VH: QVQLQESGPGLVKPSETLSLTCTVTGGSISRNYWSWIRQPPGKGLEWIGYIYYSGSINYNPSLKSRVTISVDMSKNQFSLKLNSVTAADTAVYYCARDRWNWKYGMDVWGQGTTVIVSS
VL: EIVLTQSPGTLSLSPGERATLSCRASQTVRNSYLAWYHQKPGQAPRLLIYGASSRATGIPDRFSGSGSGTDFTLTISRLEPEDFAVYYCQQYGSSYWTFGQGTKMEIKR
notes: mouse IgG2a Fc
[2]
  binding signal ratio to isotype control (11 nM): 45 fold
[3]
  binding signal ratio to isotype control (11 nM): 35 fold

B15: H1H27756P-N297Q (antibody, human IgG1, V domains shown)
VH: QVQLVESGGGVVQPGRSLRLSCAASGFTFSNYDMHWVRQAPGKGLEWMAVISYDGINKYYADSVKGRFTISRDNSKNTLYLQMNSLRAEDTAVYYCAKGTYSWYFDLWGRGTLVTVSS
VL: not shown
notes: human IgG1 Fc with N297Q
[1]
  MFI: 4570

B16: H1xH27759P2 (antibody, V domains shown)
VH: EVQLVESGGGFVQPGGSLRLSCAASGFTFSSYAMSWVRQAPGKGLEWVSAISGTGSNTYYADSVKGRFTISRDNSKNTLYLQMNSLRAEDTAVYYCAKDRVTTVTYYFDYWGQGTLVTVSS
VL: not shown
notes: as for B3
[2]
  binding signal ratio to isotype control (11 nM): 21 fold
[3]
  binding signal ratio to isotype control (11 nM): 22 fold
